Paper PMC9482448 (Nature, 2021)

Biological target: human SMCT1 (monocarboxylate transporter of the SGLT family) (Homo sapiens (Human)., UniProt Q8N695)
Experiment: cryo-EM structure

Sequence of human SMCT1 (monocarboxylate transporter of the SGLT family) (Q8N695 whole entry): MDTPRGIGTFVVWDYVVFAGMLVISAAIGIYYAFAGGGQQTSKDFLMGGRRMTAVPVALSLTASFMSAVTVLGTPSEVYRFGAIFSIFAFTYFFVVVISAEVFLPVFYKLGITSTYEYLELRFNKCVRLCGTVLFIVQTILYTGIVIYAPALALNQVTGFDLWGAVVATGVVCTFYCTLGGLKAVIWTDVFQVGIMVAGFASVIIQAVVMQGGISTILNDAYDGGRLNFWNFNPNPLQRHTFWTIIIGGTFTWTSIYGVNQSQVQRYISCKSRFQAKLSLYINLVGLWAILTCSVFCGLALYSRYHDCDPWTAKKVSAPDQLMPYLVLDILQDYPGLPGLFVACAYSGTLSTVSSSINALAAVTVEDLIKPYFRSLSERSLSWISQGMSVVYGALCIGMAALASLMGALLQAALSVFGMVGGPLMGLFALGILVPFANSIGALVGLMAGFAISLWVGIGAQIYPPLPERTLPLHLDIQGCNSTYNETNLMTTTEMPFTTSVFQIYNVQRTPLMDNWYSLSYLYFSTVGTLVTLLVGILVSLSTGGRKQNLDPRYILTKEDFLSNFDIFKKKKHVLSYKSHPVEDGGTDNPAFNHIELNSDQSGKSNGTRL

binding result: binds
B1: nanobody Nb2 (binds SMCT1) (VHH)
VHH: QVQLQESGGGLVQAGGSLRLSCAASGNISTRAGMGWYRQAPGKEREFVASINWGAITNYADSVKGRFTISRDNAKNTVYLQMNSLKPEDTAVYYCAVEYKYGPQRSDTYYYWGQGTQVTVSS
